Data on four molecules can be found in patent US20200317792A1 (INSMED, published 2020).

In the test the target is T1, recombinant, soluble his tagged human EGFR (Sino Biologicals) (human, UniProt P00533 25-645).
T1 construct: extracellular domain; also called human epidermal growth factor receptor; not shown: his tag
The test is described as follows: BLI (ForteBio Octet Red), IgG on protein A tips, 100 nM soluble EGFR.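 Note: antibody binding to EGFR read out as on and off rates plus equilibrium affinity, calculated with the Octet instrument software.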

Where a chain is given by its changes, count along the chain named.

B1: CoDAH design C5 VH/C1 Vκ (antibody, V domains shown)
VH: QVQLQQSGPGLVKPSETLSITCTVSGFSLTNYGVHWVRQSPGKGLEWLGVIWSGGNTDYNTPFTSRLTINKDNSKSQVFFKMNSLQSNDTAVYYCARALTYYDYEFAYWGQGTLVTVSA
VL: DIVLTQSPDFQSVTPKEKVTITCRASQSIGTNIHWYQQKPDQSPKLLIKYASESISGVPSRFSGSGSGTDFTLTINSVESEDIADYYCQQNNNWPTTFGAGTKLELKR
notes: Cross pair; Measured as full length IgG
For the molecule B1, the binding result is “binds”.

B2: CoDAH design C5 VH/C2 Vκ (antibody, V domains shown)
VH: B1 VH
VL: B1 VL with D9V, Q11L, K16G
notes: as for B1
B2: the binding result is on record as “binds”.

B3: CoDAH design C5 VH/C5 Vκ (antibody, V domains shown)
VH: B1 VH
VL: EIVLTQSPVILSVSPGERVTFSCRASQSIGTNIHWYQQKTDQSPRLLIKYASESISGIPSRFSGSGSGTDFTLTINSVESEDIADYYCQQNNNWPTTFGQGTKLELKR
notes: Pareto optimal design; Measured as full length IgG
For B3, the binding result is “binds”.

B4: CoDAH design C5 VH/C3 Vκ (antibody, V domains shown)
VH: B1 VH
VL: B3 VL with E1D, V3L, T40P, R45K, I58V, Q100A
notes: as for B1
Turning to B4, the binding result is “binds”.
